The target of the assay is His-tagged recombinant human ACE2 protein (residues 19-740), dimeric (human, UniProt Q9BYF1 19-740). The assay is described as follows: BLI. (In general: Biolayer interferometry detects binding as a change in optical thickness at a sensor tip.)
Sequence of His-tagged recombinant human ACE2 protein (residues 19-740), dimeric (Q9BYF1 19-740): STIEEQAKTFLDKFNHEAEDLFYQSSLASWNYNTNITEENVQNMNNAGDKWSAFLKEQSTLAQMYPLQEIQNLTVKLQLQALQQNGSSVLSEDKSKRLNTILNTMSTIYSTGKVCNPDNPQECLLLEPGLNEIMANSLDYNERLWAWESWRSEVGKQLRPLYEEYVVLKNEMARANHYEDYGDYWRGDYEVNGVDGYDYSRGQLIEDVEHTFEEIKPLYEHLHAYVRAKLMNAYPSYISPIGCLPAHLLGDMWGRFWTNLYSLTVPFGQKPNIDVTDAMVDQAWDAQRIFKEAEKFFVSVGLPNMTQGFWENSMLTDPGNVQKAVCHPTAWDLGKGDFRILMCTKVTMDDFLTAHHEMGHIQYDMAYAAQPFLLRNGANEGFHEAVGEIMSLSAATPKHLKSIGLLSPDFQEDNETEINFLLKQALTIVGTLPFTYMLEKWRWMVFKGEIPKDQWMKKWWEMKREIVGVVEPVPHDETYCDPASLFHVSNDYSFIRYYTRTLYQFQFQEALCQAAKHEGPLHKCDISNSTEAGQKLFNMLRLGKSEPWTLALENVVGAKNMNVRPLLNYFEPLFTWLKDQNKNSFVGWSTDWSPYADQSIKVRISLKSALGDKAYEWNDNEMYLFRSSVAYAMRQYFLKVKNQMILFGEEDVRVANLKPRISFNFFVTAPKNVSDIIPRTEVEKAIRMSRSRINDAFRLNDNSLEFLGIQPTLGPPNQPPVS

B1: monoclonal antibody 3E8 (antibody, V domains shown)
VH: EVQLEESGAELVRPGASVKISCKAFGYTFTNHHINWMKQRPGQGLDWIGYVNPYNDYTKYSQNFKGKATLSVDRSSSTAYMELSSLTSEDSAVYYCARWRDYDRDWYFDVWGAGTTVIVSS
VL: DIVMTQSPATLSVTPGDRVSLSCRASQSIRDYLYWYQQKSHESPRLLIKYASQSISGIPSRFSGSGSGSDFTLSINSVEPEDVGVYYCQNGHSFPYTFGGGTKLEIK
On to B1, for which the koff is 0.000278 s⁻¹.

The koff is the first-order rate constant of dissociation.
